The values that follow come from patent US20220073617A1 (Five Prime, published 2022).

Where “and” joins values, the source holds several entries; their conditions need not be identical. Identical values can stand only once.

Test [1] concerns the target T1, monovalent hVISTA-ECD (human VISTA extracellular domain with His tail) (human, UniProt Q9H7M9 33-193).
T1 construct: analyte flowed over captured antibody; also called huVISTA-His
Kind of test: SPR, pH 7.4. The procedure: (§1) Binding of several preparations of each of the '029 progeny clones and of the parent '029 antibodies, formatted as IgG1.3 antibodies, to human VISTA at pH 6.0 and 7.4 was measured by Surface plasmon resonance (SPR). SPR analysis was performed to measure koff and KD binding affinity measurements for VISTA Abs at acidic and neutral pHs using a Biacore® T100 instrument (GE Healthcare). Protein A (ThermoFisher Scientific catalog #21181) was diluted to 20 ug/ml in 10 mM sodium acetate pH 4.5 and immobilized onto flow cells of a CM5 biosensor following the manufacturer's amine coupling protocol (GE Healthcare), targeting 2,000 RU immobilization density of Protein A per flow cell. SPR experiments were conducted at 37° C. using PBST (137 mM sodium chloride, 2.7 mM potassium chloride, 10 mM phosphate buffer, 0.05% Tween® 20) running buffer at pH 7.4 and 6.0. Antibodies were diluted to 25 nM in PBST pH 7.4, and were captured across active biosensor flow cells at 5 ul/min for 60 seconds. […] Two 15 second injections of 10 mM glycine pH 1.5 were used to regenerate the Protein A capture surface between assay cycles. Rate constants ka (kₒₙ) and kd (koff) were derived from reference flow cell and 0 nM blank-subtracted sensorgrams, and were fit to a 1:1 binding model in Biacore® T200 Evaluation Software v.2.0. The affinity constant, KD was calculated as the ratio of rate constants koff/kₒₙ for each VISTA antibody.

Test [2] addresses T1, monovalent hVISTA-ECD (human VISTA …). Description: SPR. In general terms: Surface plasmon resonance follows binding to a sensor surface in real time, without labels.
The target is the same in test [3]. Description: SPR, pH 6.0. How it is done:
as §1
(§2) This initial campaign led to pH-independent VISTA.4 variants with near equivalent koff at pH 6 and pH 7. In order to obtain an antibody that binds to hVISTA with high affinity at pH 6.0 and low affinity at pH 7.0, a new library based on consensus sequence of pH-independent VISTA.4 variants was designed and constructed, with amino acid residues in the loops substituted for charge amino acid residues (see Example 9), and screened via yeast surface display (see Example 9). The library was analyzed as previously described (see Example 9) and selected variants were reformatted as IgG1.3 for further analysis (Tables 26 and 27). SPR analysis was conducted on these variants using the conditions previously described in Example 9.

Test [4] shares this target. Kind of test: SPR, pH 6.0. The source holds these as a separate data set.
For test [5] the target is unchanged. Kind of test: SPR. The procedure:
as §1
This is another data set of the same source.

For test [6] the target is unchanged. Description: SPR, pH 7.4. This is another data set of the same source.
Test [7] shares this target. Kind of test: SPR, pH 7.4. How it is done:
as §1, §2
The source holds these as a separate data set.

Test [8] has the same target. Kind of test: SPR, pH 6.0. How it is done: as §1
This is another data set of the same source.

The target is the same in test [9]. Kind of test: SPR, pH 7.4, average. How it is done: as §1
Some of the VISTA.4 mutants described above and new mutants were tested for binding to hVISTA, according to the methods described in Example 9. […] Antibody 41F11_VH_T28P/Y50W/S55E/D95H/L96E/P97E/Y100E; VK_A64G (P1-070976) is the only VISTA.4 derivative that is pH selective.

Test [10] shares this target. Kind of test: SPR, pH 6.0, average. How it is done: as §1, with “antibody. […]” for “antibody.”

B1: P1-064510 (41F11_Vk_A25E/V29D/A64G/R91T) (antibody, V domains shown)
VH: QVQLVESGGGLVKPGGSLRLSCAASGFTFSDYYMSWIRQAPGKGLEWVSYISNSGSPIYYADSVKGRFTISRDNAKNSLYLQMNSLRAEDTAVYYCARDLPGWYFDLWGRGTLVTVSS
VL: EIVLTQSPATLSLSPGERATLSCRESQSDSSYLAWYQQKPGQAPRLLIYDASNRATGIPARFSGSGSGTDFTLTISSLEPEDFAVYYCQQTNNWPRTFGQGTKVEIK
notes: also called P1-064510-1
On to B1, for which the Kd in test [1] worked out at 4.1 nM; in test [3], 4.8 nM; in [4], 2.51 nM; in [6], 84.8 nM; in test [7], 3.4 nM; in [8], 2.6 nM. Moreover, the “kd improvement vs parent” value stood at 1.4 fold in test [1] and 35 fold in [8]. Also, the koff in test [1] was determined as 0.00064 s⁻¹; in test [3], 0.0036 s⁻¹; in [4] it was 0.00312 s⁻¹; in test [6] it was 0.000527 s⁻¹; in test [7], 0.00039 s⁻¹; in test [8], 0.0031 s⁻¹. Besides, the kon in test [1] came out at 150000 M⁻¹ s⁻¹; in test [3], 750000 M⁻¹ s⁻¹; in test [4], 1.24e+06 M⁻¹ s⁻¹; in test [6] it was 6220 M⁻¹ s⁻¹; in test [7], 110000 M⁻¹ s⁻¹; in test [8], 1.2e+06 M⁻¹ s⁻¹. Moreover, the “KD ratio (pH 7.4/pH 6.0)” value in test [2] came to 33.8. Further, the “pH 6.0/7.4 KD” value in [5] worked out at 0.6. For the same molecule, the “pH 6.0/7.4 kd” value in [5] worked out at 4.8.

B2: P1-071801 (P1-070976_E97P) (antibody, human IgG1, kappa, V domains shown)
VH: QVQLVESGGGLVKPGGSLRLSCAASGFPFSDYYMSWIRQAPGKGLEWVSWISNSGEPIYYADSVKGRFTISRDNAKNSLYLQMNSLRAEDTAVYYCARHEPGWEFDLWGRGTLVTVSS
VL: EIVLTQSPATLSLSPGERATLSCRASQSVSSYLAWYQQKPGQAPRLLIYDASNRATGIPARFSGSGSGTDFTLTISSLEPEDFAVYYCQQRNNWPRTFGQGTKVEIKR
notes: IgG1.3
In [9], B2 gave a dissociation constant (Kd) of 21 nM, a dissociation rate constant (koff) of 0.00061 s⁻¹ and a kon of 29000 M⁻¹ s⁻¹. Also, in [10], the affinity, expressed as Kd, was 3.5 nM; the dissociation rate constant (koff) was 0.0016 s⁻¹; the association rate constant (kon) stood at 460000 M⁻¹ s⁻¹.

B3: P1-065326 (41F11_VH_D31E/Y50W/S55E/L96E/Y100E VK_A64G) (antibody, V domains shown)
VH: QVQLVESGGGLVKPGGSLRLSCAASGFTFSEYYMSWIRQAPGKGLEWVSWISNSGEPIYYADSVKGRFTISRDNAKNSLYLQMNSLRAEDTAVYYCARDEPGWEFDLWGRGTLVTVSS
VL: EIVLTQSPATLSLSPGERATLSCRASQSVSSYLAWYQQKPGQAPRLLIYDASNRATGIPARFSGSGSGTDFTLTISSLEPEDFAVYYCQQRNNWPRTFGQGTKVEIK
notes: Kabat positions; also called P1-065326-1
For B3, the dissociation constant Kd in test [1] worked out at 0.76 nM; in test [3] it was 0.21 nM; in test [4] it was 0.172 nM; in test [6], 0.986 nM; in test [7], 0.72 nM; in test [8], 0.12 nM. Moreover, the “kd improvement vs parent” value in test [1] stood at 2.7 fold; in test [8] it was 294 fold. In addition, the koff in test [1] was found to be 0.00033 s⁻¹; in test [3], 0.00051 s⁻¹; in test [4], 0.000603 s⁻¹; in [6], 0.000285 s⁻¹; in test [7] it was 0.00032 s⁻¹; in [8] it was 0.00036 s⁻¹. Further, the association rate constant (kon) in [1] came out at 440000 M⁻¹ s⁻¹; in [3], 2.4e+06 M⁻¹ s⁻¹; in [4] it was 3.52e+06 M⁻¹ s⁻¹; in [6], 289000 M⁻¹ s⁻¹; in [7], 450000 M⁻¹ s⁻¹; in [8], 2.9e+06 M⁻¹ s⁻¹. Further, the “KD ratio (pH 7.4/pH 6.0)” value in [2] worked out at 5.73. Besides, the “pH 6.0/7.4 KD” value in [5] was found to be 0.2. The “pH 6.0/7.4 kd” value in [5] was 1.1.

B4: VISTA.4 A64G (41F11 Vk:A64G) (antibody, human IgG1, kappa, V domains shown)
VH: QVQLVESGGGLVKPGGSLRLSCAASGFTFSDYYMSWIRQAPGKGLEWVSYISNSGSPIYYADSVKGRFTISRDNAKNSLYLQMNSLRAEDTAVYYCARDLPGWYFDLWGRGTLVTVSS
VL: EIVLTQSPATLSLSPGERATLSCRASQSVSSYLAWYQQKPGQAPRLLIYDASNRATGIPARFSGSGSGTDFTLTISSLEPEDFAVYYCQQRNNWPRTFGQGTKVEIKR
notes: IgG1.3; also called P1-061520; P1-061520-10
For the molecule B4, the Kd is 4 nM in test [9]; 38 nM in [3]; 17.4 nM and 16.6 nM in [4]; 4.48 nM and 4.19 nM in [6]; 1.7 nM in [7]; 40 nM in [10]. In addition, the dissociation rate constant (koff) in test [9] was 0.00091 s⁻¹; in [3], 0.086 s⁻¹; in test [4], 0.0403 s⁻¹ and 0.0395 s⁻¹; in test [6], 0.00103 s⁻¹ and 0.00105 s⁻¹; in test [7], 0.00093 s⁻¹; in test [10], 0.033 s⁻¹. The on-rate constant (kon) is 230000 M⁻¹ s⁻¹ in [9]; 2.3e+06 M⁻¹ s⁻¹ in test [3]; 2.31e+06 M⁻¹ s⁻¹ and 2.37e+06 M⁻¹ s⁻¹ in test [4]; 231000 M⁻¹ s⁻¹ and 250000 M⁻¹ s⁻¹ in test [6]; 550000 M⁻¹ s⁻¹ in test [7]; 830000 M⁻¹ s⁻¹ in test [10].

B5: P1-071799 (P1-070976_H95D) (antibody, human IgG1, kappa, V domains shown)
VH: QVQLVESGGGLVKPGGSLRLSCAASGFPFSDYYMSWIRQAPGKGLEWVSWISNSGEPIYYADSVKGRFTISRDNAKNSLYLQMNSLRAEDTAVYYCARDEEGWEFDLWGRGTLVTVSS
VL: EIVLTQSPATLSLSPGERATLSCRASQSVSSYLAWYQQKPGQAPRLLIYDASNRATGIPARFSGSGSGTDFTLTISSLEPEDFAVYYCQQRNNWPRTFGQGTKVEIKR
notes: IgG1.3
In test [10], B5 returned a Kd of 15 nM, a koff of 0.027 s⁻¹ and a kon of 1.7e+06 M⁻¹ s⁻¹.

As a reminder, the Kd is the equilibrium constant for the complex coming apart. High values mean weaker binding, low ones tighter binding. What is called koff is a measure of how fast the partners let go of each other. A lower koff goes with slow dissociation. The term kon denotes the second-order rate constant of association. A high value points to faster complex formation.
